Experiment: yeast display, Sf9 membrane polyspecificity reagent, FACS + sequencing; frameworks hold sequencing errors
How it was run: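 Genes from sorted yeast were amplified by colony PCR, read by MiSeq 2 × 250 sequencing and filtered on CDR length. These cells carried a synthetic nanobody library in Saccharomyces cerevisiae BJ5465 and were sorted by FACS into low and high (top ~1%) gates on anti-HA and streptavidin fluorescence. Polyreactivity is labelled according to the gate of origin.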

Sequence	polyreactivity (PSR sort gate)
QVQLVESGGGLDQAGGSLRLSCAASGITFTFNAMGWYRQAPGKERELVAAISSTTSTKYADSVKGRFTISRDNAKYTVYLQMNSLKPEDTAVYYCAAVEFELRGDYWGQGTQVTVSS	low polyreactivity
QVQLVESGGGLVQAGGSLRLSCAASGRIFNYNAMGWYRQAPGKERELVAVITSGDSTNYADSVKGRFTISRDNAKNTVYLQMNSLKPVDTAVYYCAAEYYSIRYGPNSIEVYGMDYWGQGTQVTVSS	low polyreactivity
QVQLVESGGGLVQAGGSLRLRCAASGRIFNGYGMGWYRQAPGKERELVAAITWSGGGTYYADTVKGRFTISRDNAKNTVYLQRNSLKPEDTAVYYCAAYSSSYPDYDSWGQGTQVTVSS	low polyreactivity
QVQLVESGGGLVQAGGSLRLSCAASGIIFGVNAMGWYRQAPGKERELVASITSGGSTNYADSVKGRFTISRDNAKNTVYLQMNSLKPEDTAVYYCNARWWAPGRPGDEINRILDYWGQGTQVTVSS	low polyreactivity
QVQLGESGGGLVQAGGSLRLSCAPTGRTFVRNAIGWYRPAPGKERELVAAISYSGGSTTYADSVKGRFTISRDNAKNTVYLQMNSLKPADTAVYYCAKKPPVGEPSGREYWGQGTQVTVSS	low polyreactivity
QVQLVESGGGLVQAGGSLRLSCAASGFIFTYYAMGWYRPEHGKERDLVATINWSDGSTRYADSVKGRFTISRDNAKNTDYLQMNSLKPEDTAVYYCAKDWFNRPSVEMDYWGQGTQVTVSS	low polyreactivity
QVQLVESGGGLVQAGGSLRLSCAASGRIFGLYAMGWYRQAPGKARELVAAISTRGGSTRYADSVKGRFTISRDTAKNTVYLQMNSLKPEDTAVYYCAKQPKPPPVTGYDYWGQGTQVTVSS	high polyreactivity
QVQLVESGGGLVQAGGSLRLSSAASGRTFAWNAMGWYRQAPGKERELVAAISYNGGRTYYADSVKGRFTISRDNAKNTVYLQMNSLKPEDTAVYYCAAQRYGYWGQGTQVTVSS	high polyreactivity
QVQRVESGGGLVQAGGSLRLSCAASGSIFYSYAMGWYRQAPGKARELVATISWSGGRTNYADSVQGRFTISRDNAKNTVYLQMNSLKPEDTAVYYCAADIPPWGGDYWGQGTQVTVSS	low polyreactivity
QVQLVESGGGLVQAGGSLRLSCAASGRTFLGYAMGWYRQAPGKERELVAAISYSGSSTYYADSVKGRFTISRDNAKNTVYLQMNSLKPEDTAVYYCAAQFYFLFDYWGQGTQVTVSS	low polyreactivity
QVQLVESGGGFVQAGGSLRLSCASSGRIFRGYTMGWYRQAPGKEREFVAAIRRSGGTTYYADSVKRRFTISRDNAKNTVYLQMNSLKPEDTAVYYCAAGYPGFTYQRRKYDYWGQGTQVTVSS	high polyreactivity
QVQLVESGGGLVQAGGSLRISCAASGYIFRFNAMGCYRPAPGKERELVAVITSGARTYYADSVKGRFTISRDNAKNTVYLQMNSLKPEDNAVYYCNAGARRYLYDYWGQGTQVTVSS	low polyreactivity
QVQLVESGGGLVQAGGSLRLSGAASGSIFYSNARGWYRQAPGKERELVAAITVGGGRTYYADSVKGRFTISRDNAKNTVYLQMNSLKPEDTAVYYCAADSHASTYDYWGQGTQVTVSS	low polyreactivity
QVQLVESGGGLVQAGGSLRLTCAASGRIFGPYVLGWYRQAPGKERELVAAISTSGTSTYYADSVKGRFTISRDNAKNTVYLQMNSLKPEDTAVYYCAKRSGARHRLMDYWGQGTQVTVSS	low polyreactivity
QDQLVESGVGLVQAGGSLRLSCAASGIIIYRNTLGWYRQAPGKERELVAAIRRGGNTYYADSVKGRFTISRDNAKNTVYLQMNSLKPEDSAVYYCAASAGPRASYYYWGQGTQVTVSS	high polyreactivity
QVQLVESGGGLVQAGGSLRLSCAASGSTFAQNAMGWYILAPGKERELVAAISRRGTITNYADSVKGRFTISRDNEKITVYLQMYSLKPEDTAVYYCATRSWLLGIQGGYWGQGTQVTVSS	high polyreactivity
QVQLVESGGGLVQAGGSLRLSCAASGFTFSWYVMGWYRQAPGKERELVATITNRGGSTYYADSVKGRFTISRDNAKNTVYLQMNSLKPEDTAVYYCAARNYGKYRTNDYWGQGTQVTVSS	high polyreactivity
QGQLEESGGGLFQAGGSLRLSCAASGRIFLYNGMGWYRQAPGKERELVAGITTGGNTNYADSVKGRFTISRDNAKNTVYLQMNSLKPEDTAVYYCAAEVIVYGWSPDYDYWGQGTQVTVSS	low polyreactivity
QVQLVESGGGLVQAGGSLRLSCAASGRIFTAYYAMGWYRQAPGKERELVASISSSGTSTYADSVKGRFTISRDNAKNTVYLQMNSLKPEDTAVYYCATRKLRTRRYDYGYWGQGTQVNVSS	low polyreactivity
QVQLVESGGGLVHAGGSLRLSCAASGSTFLPNAMVWYRQSHGKERELVAAISYRGGGTFYADSVKGRFTISRDNAKNTVYLQMNSLKPEDTAVYYCAADWSWFDNFDYWGQGTQVTVSS	low polyreactivity
QVQLVESGGGLVQAGGSLRLSCAASGSTFSGYAMGWYRQAPGKERELVAAITLGGGSTYYADSVKGRFTISRDNAKNTVYLQMNSLKPEDTAVYYCAAGDIYYAEYDYWGQGTQVTVSS	low polyreactivity
QVQLVESGGGLVQAGGSLRLSCAASGSTFYYYAMGWYRQAPGKERELVASITTGGGSTYYADSVKGRFTISRDNAKNTVYLQMNSLKPEDTAVYYCAAALAYYYWWYDYWGQGTQVTVSS	low polyreactivity

Sequence	polyreactivity (PSR sort gate)
QVQLVESGGGLVQAGGSLRLSCAASGSIILHYAMGRYRHAPRKERELVAVIRGGGSTNYADSVKGRFTISRDNAKNSVYLQMNSLKPEDSAVYYCAADYEAYRYDFWGQGTQVTVSS	high polyreactivity
QVQLVVSGGGLVQAGGSLRLSCAASGRIFYTYAMGWYIQAPGKERELVATITDGGSTYYADSVKVRFTISRDNAMNNVYLQMNILKPEDTAVYYCAADAYQWYDWGQGTHVTVSS	low polyreactivity
QVQLVESGGGLVQAGGSLRLSCAASGITFTVYAMGWYRQAPGKERELVAAITSTGSTNYAHSVKGRFTISRDNAKNTVYLLMNSLKPEDTAVYYCAADRQITVYAYDYWGQGTQVTVSS	low polyreactivity
QVKLVESGGGLVQAGGSLRLSCAASGRTFGIYAMGWYRQAPGKERELVAAITWSGDSTYYADSVKGRFTISRDNAKNTVYLQINSLKPEDTAVYYCAADYVGVTSVRYDYWGQGTQVTVSS	low polyreactivity
QVQLVESGGGLVQAGGSLRLSCAASGSTFDPNAMGWYRQAPGKERELVAVIDSGDGTTNYADSVKGRFTISRDNAKNTVYLQMNSLKPEDTAVYYCNKDTLVYGYVQDYEYWGQGTQVTVSS	low polyreactivity
QVQLVESGGGLVQAGGSLRLSCAASGYTFRHYAMGWYRQAPGKERELVAAISRSGGRTYYADSVKGRFTISRDNAKNTVYLHMNSLKPEDTAVYYCAADRVFGSSYLSGFDYWGQGTQGTVSS	low polyreactivity
QVQLVESGGGLVQAGGSLRLSCAASGRTFSGYAMGWYRQAPGKERELVAAITSSGSSTYYADSVKGRFTISRDKAKNTVYLQMNCLKPEDTAVYYCAATPQAHSERYYSQRKYDYWGQGTQVTVSS	low polyreactivity
QVQLVSSGGGLVLAGGSLRLSCAASGRTIQDNAMGWYTQAPGKERELVAAISWRGGSTNYADSVKGRFTISRDNAKNTVYLQMNSLKPEDTAVYYCNRDPRKYGKLDYWGQGTQVTVSS	low polyreactivity
QVQLVESGGGLVQAGGSLRLSCAASGRIFNPYAMGWYRKAPGKERELVAAISRGGRTYYADSVKGRFTISRDNAKNTVYLQMNSLKPEDTAVYYCAKLPSRRWAYDYWGQGTQVTVSS	high polyreactivity
QVQLVESGRGLVHAGGSLRISCAASGSTYTWNVMGWYRQAPGKERELVADINSGADTSYADSVKGRFTISRDNAKNTVYLQMNSLKPEDTGVYYCAADIYVYDYWGQGTQVTVSS	low polyreactivity
QVQLVESGGGLVQAGGSLRLSCAASGRILYTYAMGWYRQAPGKERELVATISSGGGTNYADSVKGRFTISRDNAKNTVYLQMNSLKPEDSAVYYCAARYGYSRGPYYRSDYWGQGTQVTVSS	high polyreactivity
QVQLVESGGGLVQAGGSLRLSCAASGFIFPYNAMGWYRQAPGKERELVAAITYRDGSTYYPDSVKGRFTISRDNANNTVYGQMNSLKPEDTAVYYCAADRYVYWDLYGYWGQGTQVTVSS	low polyreactivity
QGQLGESGGGLVQAGGSLRLSCAASGIIFTWYVMGWYRQAPGKERELVAAISASGASTYYADSVKGRFTISRDNAKNTVYLQMHSLNPEDPAVNYCNRYPTDGRTSYVTYYYWGQGTQVTVSS	high polyreactivity
QVQLVESGGGLVQAGGSLRLSCAASGSTFYRNAMGWYRQAPGKERELVAAISRGGSTYYADSVKGRFTISRDNAKNTVYLQMNSLKPEDTAVYYCNTDVNYAGYGWYYYWGQGTQVTVSS	high polyreactivity
QVQLVESGGGLVQAGGSLRLSCAASGFIFALYARGWYRQAPGTERELVAAITSSSSTYAASVKGRFTISRDNAKNTVYLQMNSLKPEDTAVYYCAADTYSYRYSNDYWGQGTQVTVSS	low polyreactivity
QVQLVESGGGLVQAGGSLRLSCAASGSTFDANAMGWYRQAPGKERELVAAISSSGVRTYYADSVKGRFTISRDNAKNTVYLQMNSLKPEDTAVYYCAAGVVISTVDVTYGYWGQGTQVTVSS	low polyreactivity
QVQIEESGGGLVQAGGSLRLSCAASGRTFYANVMGWSRQAPGIEWELVAAITYSGGSTYYADSVKGRFTISRDNAQNTVYVLMNCLKQEDTADYYCAADNVYTFYYWGQGTLVTVSS	low polyreactivity
QDQLVESGGGLVQAGGSLRLSCAASGSIFQSYAMGWYRQAPGKERELVAANDRSGTSTYYADSVKGRFTISRDNAKNTVYLQLNSLKPEDTAVYYCAAVSSRGRFGYTVQIEYDYWGQGTQVTVSS	low polyreactivity
QVQLVESGGGLVQAGGSLRLSCAASGLTFDHNVMGWYRQAPGKERELVAAISRSGSSTYYADSVKGRFTISRDNAKNTVYLQMNSLKPEDTAVYYCAASDKRIYNLLRRYYYWGQGTQVTVSS	high polyreactivity
QVQLVESGGGLVQAGGSLRLSCAASGRIFGDYGMGWYRQAPGKDRELVAAITDRGGTTYYADSVKGRFTISRDNAKNTVYVQKNSLQPEDTAVYYCNADTVVVWYSPSREYDYWGQGTQVTVSS	low polyreactivity
QVQLVESGGGLVQAGGSLRLSCAASGIIFSGYAMGWYRQAPGKERELVAAITWGGGSTYYADSVKGRFTISRDNAKNTVYLQMNSLKPEDTAVYYCAATWWYEHVRYYSWGQGTQVTVSS	high polyreactivity
